Here are results for 125 sequences from the supplement of paper PMC9112550, “Optimization of the antimicrobial peptide Bac7 by deep mutational scanning” (BMC Biology, 2022).
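Note: peptides expressed intracellularly from a pBAD plasmid library in pooled LB shake-flask culture, induced with 0.3% L-arabinose, DNA abundance read by NGS, three biological replicates, DESeq2 with apeglm shrinkage.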

The data set concerns Escherichia coli TOP10. Kind of data set: shrunken log2 fold change of peptide-encoding DNA abundance (4.5 h post-induction vs induction); higher = less antimicrobial activity (less host growth inhibition). Particulars: time post-induction: 4.5 h; library: site-saturation at positions 5, 18, 19, 20.
Turning to RRIRCRPPRLPRPRPRPRENPRP, the “shrunken log2 fold change” value stood at 0.439. In the case of RRIRKRPPRLPRPRPRPLTYPRP, the “shrunken log2 fold change” value came to 0.0522. With RRIRTRPPRLPRPRPRPAPWPRP the figure was 0.254; with RRIRMRPPRLPRPRPRPGPAPRP, 1.71; with RRIRERPPRLPRPRPRPTFKPRP, -0.313. The result for RRIRIRPPRLPRPRPRPLRTPRP reads -0.0568; that for RRIRSRPPRLPRPRPRPNYIPRP, -0.757. With RRIRERPPRLPRPRPRPHGCPRP the figure was -0.00136. Regarding RRIRLRPPRLPRPRPRPYHRPRP, the “shrunken log2 fold change” value was 0.0373.

With RRIRRRPPRLPRPRPRPIDPPRP, the “shrunken log2 fold change” value is -0.0222. The result for RRIRNRPPRLPRPRPRPEPSPRP reads 0.145. With RRIRARPPRLPRPRPRPYNIPRP the figure was -0.159; with RRIRYRPPRLPRPRPRPSSQPRP, -0.261. With RRIRGRPPRLPRPRPRPPYCPRP the figure was 0.204. Turning to RRIRDRPPRLPRPRPRPETSPRP, the “shrunken log2 fold change” value was -0.0166. Take RRIRNRPPRLPRPRPRPLFHPRP: the “shrunken log2 fold change” value was -0.595. With RRIRRRPPRLPRPRPRPWEMPRP the figure was -0.171; with RRIRARPPRLPRPRPRPEPFPRP, 0.0204; with RRIRFRPPRLPRPRPRPVSDPRP, 0.00637.

For the sequence RRIRVRPPRLPRPRPRPVNWPRP, the “shrunken log2 fold change” value stood at 0.27.

Turning to RRIRPRPPRLPRPRPRPKCDPRP, the “shrunken log2 fold change” value is -0.314. In the case of RRIRTRPPRLPRPRPRPMDWPRP, the “shrunken log2 fold change” value is -0.05.

With RRIRLRPPRLPRPRPRPMAGPRP, the “shrunken log2 fold change” value stood at 0.208. As to RRIRPRPPRLPRPRPRPRDQPRP, the “shrunken log2 fold change” value was found to be 0.0809. With RRIRMRPPRLPRPRPRPYIHPRP the figure was -0.262. Consider RRIRHRPPRLPRPRPRPYFDPRP, for which the “shrunken log2 fold change” value is -0.422. With RRIRVRPPRLPRPRPRPGHWPRP the figure was 0.164; with RRIRARPPRLPRPRPRPGHCPRP, 0.0986; with RRIRARPPRLPRPRPRPPIVPRP, -0.0791.

Consider RRIRPRPPRLPRPRPRPQEMPRP, for which the “shrunken log2 fold change” value turned out to be 0.0716.

In the case of RRIRNRPPRLPRPRPRPMERPRP, the “shrunken log2 fold change” value is 0.019. The result for RRIRHRPPRLPRPRPRPGWAPRP reads 0.344. With RRIRGRPPRLPRPRPRPCACPRP the figure was 0.225. The result for RRIRQRPPRLPRPRPRPVTPPRP reads -0.00477; that for RRIRDRPPRLPRPRPRPFKCPRP, 0.0039. For RRIRYRPPRLPRPRPRPRGPPRP, the “shrunken log2 fold change” value came to 0.127. RRIRCRPPRLPRPRPRPGEDPRP: the “shrunken log2 fold change” value is -0.0369.

For RRIRDRPPRLPRPRPRPEWTPRP, the “shrunken log2 fold change” value was determined as 0.147. The result for RRIRGRPPRLPRPRPRPDDKPRP reads 0.22; that for RRIRHRPPRLPRPRPRPLPIPRP, -0.598.

In the case of RRIRFRPPRLPRPRPRPDHVPRP, the “shrunken log2 fold change” value worked out at 0.0266.

With RRIRNRPPRLPRPRPRPCSCPRP, the “shrunken log2 fold change” value is -0.0018.

In the case of RRIRMRPPRLPRPRPRPLFWPRP, the “shrunken log2 fold change” value worked out at 0.554. In the case of RRIRIRPPRLPRPRPRPVLSPRP, the “shrunken log2 fold change” value is -0.311.

On to RRIRRRPPRLPRPRPRPYYWPRP, for which the “shrunken log2 fold change” value is -0.0449. The result for RRIRNRPPRLPRPRPRPQGTPRP reads -0.0148; that for RRIRPRPPRLPRPRPRPHQFPRP, -0.0896. With RRIRFRPPRLPRPRPRPWKKPRP the figure was -0.00973; with RRIRGRPPRLPRPRPRPALLPRP, 1.14. RRIRFRPPRLPRPRPRPMMAPRP: the “shrunken log2 fold change” value stood at 0.189. The result for RRIRCRPPRLPRPRPRPHVPPRP reads -0.0309; that for RRIRFRPPRLPRPRPRPGIQPRP, -0.11; that for RRIRYRPPRLPRPRPRPPVEPRP, -0.108.

As for RRIRTRPPRLPRPRPRPHAPPRP, the “shrunken log2 fold change” value is -0.046. The result for RRIRPRPPRLPRPRPRPYPYPRP reads -0.124. The result for RRIRFRPPRLPRPRPRPDHFPRP reads -0.331. Regarding RRIRPRPPRLPRPRPRPPHYPRP, the “shrunken log2 fold change” value turned out to be 0.457. The result for RRIRTRPPRLPRPRPRPIISPRP reads -0.0891. The result for RRIRIRPPRLPRPRPRPTKNPRP reads -0.355; that for RRIRARPPRLPRPRPRPECYPRP, 0.361. Regarding RRIRSRPPRLPRPRPRPSAAPRP, the “shrunken log2 fold change” value was 0.614.

Take RRIRHRPPRLPRPRPRPFQQPRP: the “shrunken log2 fold change” value is -0.0263. For RRIRPRPPRLPRPRPRPSWVPRP, the “shrunken log2 fold change” value was determined as 0.0466.

RRIRTRPPRLPRPRPRPQVMPRP: the “shrunken log2 fold change” value is -0.133. In the case of RRIRGRPPRLPRPRPRPYPEPRP, the “shrunken log2 fold change” value worked out at 0.0556. With RRIRNRPPRLPRPRPRPKWKPRP the figure was 0.0263. Consider RRIRTRPPRLPRPRPRPRMNPRP, for which the “shrunken log2 fold change” value is -0.133. Consider RRIRRRPPRLPRPRPRPPLSPRP, for which the “shrunken log2 fold change” value was determined as 0.996. With RRIRQRPPRLPRPRPRPLFYPRP the figure was -0.251. The result for RRIRCRPPRLPRPRPRPRDFPRP reads 0.0317; that for RRIRKRPPRLPRPRPRPGHSPRP, -0.0124; that for RRIRARPPRLPRPRPRPKVNPRP, -0.109.

Consider RRIRDRPPRLPRPRPRPFIVPRP, for which the “shrunken log2 fold change” value was -0.193.

Turning to RRIRTRPPRLPRPRPRPWAFPRP, the “shrunken log2 fold change” value is -0.185. The result for RRIRRRPPRLPRPRPRPVQKPRP reads 0.223. With RRIRARPPRLPRPRPRPHAPPRP the figure was 0.54; with RRIRYRPPRLPRPRPRPQYKPRP, -0.179. With RRIRHRPPRLPRPRPRPMDKPRP the figure was -0.123; with RRIRERPPRLPRPRPRPKMHPRP, -0.134; with RRIRWRPPRLPRPRPRPVQRPRP, 0.257. In the case of RRIRTRPPRLPRPRPRPWWYPRP, the “shrunken log2 fold change” value was -0.308. With RRIRERPPRLPRPRPRPDVEPRP, the “shrunken log2 fold change” value was found to be 0.084. As to RRIRDRPPRLPRPRPRPHKVPRP, the “shrunken log2 fold change” value was -0.0568. With RRIRSRPPRLPRPRPRPYVYPRP the figure was -0.852; with RRIRERPPRLPRPRPRPTRYPRP, -0.154.

Turning to RRIRGRPPRLPRPRPRPCSIPRP, the “shrunken log2 fold change” value was 0.0747.

For RRIRDRPPRLPRPRPRPHPTPRP, the “shrunken log2 fold change” value came out at 0.0176. The result for RRIRARPPRLPRPRPRPGWFPRP reads 0.524; that for RRIRLRPPRLPRPRPRPVSRPRP, 0.0317. With RRIRKRPPRLPRPRPRPSQQPRP the figure was 0.312.

As for RRIRKRPPRLPRPRPRPKRCPRP, the “shrunken log2 fold change” value came out at 0.309.

RRIRYRPPRLPRPRPRPGGPPRP: the “shrunken log2 fold change” value is 0.106. With RRIRYRPPRLPRPRPRPTIPPRP, the “shrunken log2 fold change” value is -0.572. With RRIRSRPPRLPRPRPRPQPHPRP the figure was 0.17; with RRIRPRPPRLPRPRPRPQRYPRP, -0.0398. The result for RRIRSRPPRLPRPRPRPDREPRP reads 0.154. As for RRIRFRPPRLPRPRPRPTRRPRP, the “shrunken log2 fold change” value amounted to 0.928. With RRIRYRPPRLPRPRPRPQSMPRP the figure was -0.451; with RRIRCRPPRLPRPRPRPNNSPRP, -0.743.

With RRIRQRPPRLPRPRPRPWGFPRP, the “shrunken log2 fold change” value stood at 0.0223.

As for RRIRQRPPRLPRPRPRPWCEPRP, the “shrunken log2 fold change” value was -0.105. As to RRIRFRPPRLPRPRPRPWIWPRP, the “shrunken log2 fold change” value came out at 0.0425. As for RRIRVRPPRLPRPRPRPMHIPRP, the “shrunken log2 fold change” value was -0.231. In the case of RRIRTRPPRLPRPRPRPTQFPRP, the “shrunken log2 fold change” value turned out to be 0.0832. In the case of RRIRERPPRLPRPRPRPNAAPRP, the “shrunken log2 fold change” value was determined as 0.163. The result for RRIRLRPPRLPRPRPRPIQWPRP reads 0.146; that for RRIRTRPPRLPRPRPRPMPDPRP, -0.0705; that for RRIRRRPPRLPRPRPRPVQYPRP, -0.00909. The result for RRIRFRPPRLPRPRPRPMHPPRP reads -0.082; that for RRIRGRPPRLPRPRPRPYIKPRP, -0.164. With RRIRPRPPRLPRPRPRPCNAPRP the figure was -0.179; with RRIRGRPPRLPRPRPRPGLKPRP, 0.725. As to RRIRHRPPRLPRPRPRPFFYPRP, the “shrunken log2 fold change” value is -0.4. The result for RRIRWRPPRLPRPRPRPIMWPRP reads 0.181. With RRIRSRPPRLPRPRPRPCPKPRP the figure was 0.355; with RRIRERPPRLPRPRPRPQQWPRP, 0.19. Turning to RRIRRRPPRLPRPRPRPQYTPRP, the “shrunken log2 fold change” value was -0.221. RRIRLRPPRLPRPRPRPCEFPRP: the “shrunken log2 fold change” value is -0.032. With RRIRYRPPRLPRPRPRPHNGPRP the figure was -0.0705. The result for RRIRMRPPRLPRPRPRPPVSPRP reads 1.27; that for RRIRKRPPRLPRPRPRPFEIPRP, -0.201. With RRIRTRPPRLPRPRPRPHTSPRP the figure was -0.301; with RRIRNRPPRLPRPRPRPWSHPRP, -0.17; with RRIRYRPPRLPRPRPRPVQKPRP, 0.0112. Turning to RRIRVRPPRLPRPRPRPNRYPRP, the “shrunken log2 fold change” value was -0.4.
